Assay results published in patent US20140087995A1 (published 2014).
Numbered stars: 1 amine (or outer) side, 2 acyl side, 3 side chain; on linkers, the order of the positions; unused ones are H or OH. Bridge positions count the residues as written; N and C are the ends. Side chains are listed from the residue outwards. Ends that are not written are not given here. * marks the point of attachment. C20 diacid = O=C(O)CCCCCCCCCCCCCCCCCCC(=O)*; γGlu = O=C(O)[C@H](CCC(=O)[*:2])N[*:1]

T1: human calcitonin receptor (human, UniProt P30988 25-474)
T1 construct: whole, on cells; Membranes of BHK cells stably transfected with the human calcitonin receptor (Assay VII); also called hCTR; hCT
T1 sequence (looked up): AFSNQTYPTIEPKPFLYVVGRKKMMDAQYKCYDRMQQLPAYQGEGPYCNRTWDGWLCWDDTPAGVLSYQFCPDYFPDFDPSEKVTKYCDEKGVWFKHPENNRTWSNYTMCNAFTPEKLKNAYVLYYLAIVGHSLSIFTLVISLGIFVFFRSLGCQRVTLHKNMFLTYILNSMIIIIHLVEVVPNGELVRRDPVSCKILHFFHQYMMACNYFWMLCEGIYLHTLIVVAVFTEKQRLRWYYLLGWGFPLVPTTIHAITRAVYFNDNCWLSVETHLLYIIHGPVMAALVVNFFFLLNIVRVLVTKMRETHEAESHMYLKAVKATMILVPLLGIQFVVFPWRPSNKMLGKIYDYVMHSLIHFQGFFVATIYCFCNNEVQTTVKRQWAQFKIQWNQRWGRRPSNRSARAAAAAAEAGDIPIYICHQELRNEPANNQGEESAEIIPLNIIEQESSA


Tests used:
[1] = molecular target: T1, human calcitonin receptor; experiment: SPA competition against 125I-calcitonin, membranes of BHK cells with human calcitonin receptor (Assay VII)
Method in brief: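 BHK hCTR membranes 35 ng/μL + SPA beads 0.05 mg/well; buffer 50 mM Hepes pH 7.4, 1 mM CaCl2, 5 mM MgCl₂, 0.1% OA, 0.02% Tween20. 120 min, 25° C., shaking. Scintillation count; IC50 by one-site binding competition.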

[2] = molecular target: T1, human calcitonin receptor; experiment: ratio of IC50 at hCTR over IC50 at hAmylin-R (SPA competition assays)
Method in brief: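 Scintillation proximity competition binding on cell membranes at 35 ng/μL with SPA beads, in 50 mM Hepes pH 7.4, 1 mM CaCl2, 5 mM MgCl₂, 0.1% OA, 0.02% Tween20. Incubated 120 min at 25° C with shaking. IC₅₀ from one-site competition fit.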

Binder	IC50 [1] [nM]	Ratio hCT/hAmylin binding [2]
K([γGlu-C20 diacid])CNTATCATQRLAEFLRHSSPNFGAIPSSTNVGPHTY-NH2 (disulfide 2-7)	3.8	21.2
K([γGlu-γGlu-C20 diacid])CNTATCATQRLANFLRHSSPNFGAIPSSTPVGPRTY-NH2 (disulfide 2-7; N-terminus assumed; SMILES CC[C@H](C)[C@H](NC(=O)[C@H](C)NC(=O)CNC(=O)[C@H](Cc1ccccc1)NC(=O)[C@H](CC(N)=O)NC(=O)[C@@H]1CCCN1C(=O)[C@H](CO)NC(=O)[C@H](CO)NC(=O)[C@H](Cc1c[nH]cn1)NC(=O)[C@H](CCCNC(=N)N)NC(=O)[C@H](CC(C)C)NC(=O)[C@H](Cc1ccccc1)NC(=O)[C@H](CC(N)=O)NC(=O)[C@H](C)NC(=O)[C@H](CC(C)C)NC(=O)[C@H](CCCNC(=N)N)NC(=O)[C@H](CCC(N)=O)NC(=O)[C@@H](NC(=O)[C@H](C)NC(=O)[C@@H]1CSSC[C@H](NC(=O)[C@@H](N)CCCCNC(=O)CC[C@H](NC(=O)CC[C@H](NC(=O)CCCCCCCCCCCCCCCCCCC(=O)O)C(=O)O)C(=O)O)C(=O)N[C@@H](CC(N)=O)C(=O)N[C@@H]([C@@H](C)O)C(=O)N[C@@H](C)C(=O)N[C@@H]([C@@H](C)O)C(=O)N1)[C@@H](C)O)C(=O)N1CCC[C@H]1C(=O)N[C@@H](CO)C(=O)N[C@@H](CO)C(=O)N[C@H](C(=O)N1CCC[C@H]1C(=O)N[C@H](C(=O)NCC(=O)N1CCC[C@H]1C(=O)N[C@@H](CCCNC(=N)N)C(=O)N[C@H](C(=O)N[C@@H](Cc1ccc(O)cc1)C(N)=O)[C@@H](C)O)C(C)C)[C@@H](C)O)	42.8	48.6
K([γGlu-C20 diacid])CNTATCATQRLAEFLRHSSPNFGAIPSSTNVGPRTY-NH2 (disulfide 2-7; N-terminus assumed; SMILES CC[C@H](C)[C@H](NC(=O)[C@H](C)NC(=O)CNC(=O)[C@H](Cc1ccccc1)NC(=O)[C@H](CC(N)=O)NC(=O)[C@@H]1CCCN1C(=O)[C@H](CO)NC(=O)[C@H](CO)NC(=O)[C@H](Cc1c[nH]cn1)NC(=O)[C@H](CCCNC(=N)N)NC(=O)[C@H](CC(C)C)NC(=O)[C@H](Cc1ccccc1)NC(=O)[C@H](CCC(=O)O)NC(=O)[C@H](C)NC(=O)[C@H](CC(C)C)NC(=O)[C@H](CCCNC(=N)N)NC(=O)[C@H](CCC(N)=O)NC(=O)[C@@H](NC(=O)[C@H](C)NC(=O)[C@@H]1CSSC[C@H](NC(=O)[C@@H](N)CCCCNC(=O)CC[C@H](NC(=O)CCCCCCCCCCCCCCCCCCC(=O)O)C(=O)O)C(=O)N[C@@H](CC(N)=O)C(=O)N[C@@H]([C@@H](C)O)C(=O)N[C@@H](C)C(=O)N[C@@H]([C@@H](C)O)C(=O)N1)[C@@H](C)O)C(=O)N1CCC[C@H]1C(=O)N[C@@H](CO)C(=O)N[C@@H](CO)C(=O)N[C@H](C(=O)N[C@@H](CC(N)=O)C(=O)N[C@H](C(=O)NCC(=O)N1CCC[C@H]1C(=O)N[C@@H](CCCNC(=N)N)C(=O)N[C@H](C(=O)N[C@@H](Cc1ccc(O)cc1)C(N)=O)[C@@H](C)O)C(C)C)[C@@H](C)O)	6.3	38.6
K([γGlu-C20 diacid])CNTATCATQRLAEFLRHSSPNFGAIPSSTNVGPNTP-NH2 (disulfide 2-7; N-terminus assumed; SMILES CC[C@H](C)[C@H](NC(=O)[C@H](C)NC(=O)CNC(=O)[C@H](Cc1ccccc1)NC(=O)[C@H](CC(N)=O)NC(=O)[C@@H]1CCCN1C(=O)[C@H](CO)NC(=O)[C@H](CO)NC(=O)[C@H](Cc1c[nH]cn1)NC(=O)[C@H](CCCNC(=N)N)NC(=O)[C@H](CC(C)C)NC(=O)[C@H](Cc1ccccc1)NC(=O)[C@H](CCC(=O)O)NC(=O)[C@H](C)NC(=O)[C@H](CC(C)C)NC(=O)[C@H](CCCNC(=N)N)NC(=O)[C@H](CCC(N)=O)NC(=O)[C@@H](NC(=O)[C@H](C)NC(=O)[C@@H]1CSSC[C@H](NC(=O)[C@@H](N)CCCCNC(=O)CC[C@H](NC(=O)CCCCCCCCCCCCCCCCCCC(=O)O)C(=O)O)C(=O)N[C@@H](CC(N)=O)C(=O)N[C@@H]([C@@H](C)O)C(=O)N[C@@H](C)C(=O)N[C@@H]([C@@H](C)O)C(=O)N1)[C@@H](C)O)C(=O)N1CCC[C@H]1C(=O)N[C@@H](CO)C(=O)N[C@@H](CO)C(=O)N[C@H](C(=O)N[C@@H](CC(N)=O)C(=O)N[C@H](C(=O)NCC(=O)N1CCC[C@H]1C(=O)N[C@@H](CC(N)=O)C(=O)N[C@H](C(=O)N1CCC[C@H]1C(N)=O)[C@@H](C)O)C(C)C)[C@@H](C)O)	0.117	0.5

Further lines, results first:

IC50 [1] [nM]	Ratio hCT/hAmylin binding [2]	Binder
26.1	26.4	K([γGlu-C20 diacid])CNTATCATQRLAEFLRHSSPNFGAIPSSTNVGSHTY-NH2 (disulfide 2-7; N-terminus assumed; SMILES CC[C@H](C)[C@H](NC(=O)[C@H](C)NC(=O)CNC(=O)[C@H](Cc1ccccc1)NC(=O)[C@H](CC(N)=O)NC(=O)[C@@H]1CCCN1C(=O)[C@H](CO)NC(=O)[C@H](CO)NC(=O)[C@H](Cc1c[nH]cn1)NC(=O)[C@H](CCCNC(=N)N)NC(=O)[C@H](CC(C)C)NC(=O)[C@H](Cc1ccccc1)NC(=O)[C@H](CCC(=O)O)NC(=O)[C@H](C)NC(=O)[C@H](CC(C)C)NC(=O)[C@H](CCCNC(=N)N)NC(=O)[C@H](CCC(N)=O)NC(=O)[C@@H](NC(=O)[C@H](C)NC(=O)[C@@H]1CSSC[C@H](NC(=O)[C@@H](N)CCCCNC(=O)CC[C@H](NC(=O)CCCCCCCCCCCCCCCCCCC(=O)O)C(=O)O)C(=O)N[C@@H](CC(N)=O)C(=O)N[C@@H]([C@@H](C)O)C(=O)N[C@@H](C)C(=O)N[C@@H]([C@@H](C)O)C(=O)N1)[C@@H](C)O)C(=O)N1CCC[C@H]1C(=O)N[C@@H](CO)C(=O)N[C@@H](CO)C(=O)N[C@H](C(=O)N[C@@H](CC(N)=O)C(=O)N[C@H](C(=O)NCC(=O)N[C@@H](CO)C(=O)N[C@@H](Cc1c[nH]cn1)C(=O)N[C@H](C(=O)N[C@@H](Cc1ccc(O)cc1)C(N)=O)[C@@H](C)O)C(C)C)[C@@H](C)O)
2.04	24.8	K([γGlu-C20 diacid])CNTATCATQRLAHFLRHSSPNFGAIPSSTPVGPNTY-NH2 (disulfide 2-7; N-terminus assumed; SMILES CC[C@H](C)[C@H](NC(=O)[C@H](C)NC(=O)CNC(=O)[C@H](Cc1ccccc1)NC(=O)[C@H](CC(N)=O)NC(=O)[C@@H]1CCCN1C(=O)[C@H](CO)NC(=O)[C@H](CO)NC(=O)[C@H](Cc1c[nH]cn1)NC(=O)[C@H](CCCNC(=N)N)NC(=O)[C@H](CC(C)C)NC(=O)[C@H](Cc1ccccc1)NC(=O)[C@H](Cc1c[nH]cn1)NC(=O)[C@H](C)NC(=O)[C@H](CC(C)C)NC(=O)[C@H](CCCNC(=N)N)NC(=O)[C@H](CCC(N)=O)NC(=O)[C@@H](NC(=O)[C@H](C)NC(=O)[C@@H]1CSSC[C@H](NC(=O)[C@@H](N)CCCCNC(=O)CC[C@H](NC(=O)CCCCCCCCCCCCCCCCCCC(=O)O)C(=O)O)C(=O)N[C@@H](CC(N)=O)C(=O)N[C@@H]([C@@H](C)O)C(=O)N[C@@H](C)C(=O)N[C@@H]([C@@H](C)O)C(=O)N1)[C@@H](C)O)C(=O)N1CCC[C@H]1C(=O)N[C@@H](CO)C(=O)N[C@@H](CO)C(=O)N[C@H](C(=O)N1CCC[C@H]1C(=O)N[C@H](C(=O)NCC(=O)N1CCC[C@H]1C(=O)N[C@@H](CC(N)=O)C(=O)N[C@H](C(=O)N[C@@H](Cc1ccc(O)cc1)C(N)=O)[C@@H](C)O)C(C)C)[C@@H](C)O)
0.157	1.2	K([γGlu-C20 diacid])CNTATCATQRLAHFLRHSSPNFGAIPSSTNVGPNTP-NH2 (disulfide 2-7; N-terminus assumed; SMILES CC[C@H](C)[C@H](NC(=O)[C@H](C)NC(=O)CNC(=O)[C@H](Cc1ccccc1)NC(=O)[C@H](CC(N)=O)NC(=O)[C@@H]1CCCN1C(=O)[C@H](CO)NC(=O)[C@H](CO)NC(=O)[C@H](Cc1c[nH]cn1)NC(=O)[C@H](CCCNC(=N)N)NC(=O)[C@H](CC(C)C)NC(=O)[C@H](Cc1ccccc1)NC(=O)[C@H](Cc1c[nH]cn1)NC(=O)[C@H](C)NC(=O)[C@H](CC(C)C)NC(=O)[C@H](CCCNC(=N)N)NC(=O)[C@H](CCC(N)=O)NC(=O)[C@@H](NC(=O)[C@H](C)NC(=O)[C@@H]1CSSC[C@H](NC(=O)[C@@H](N)CCCCNC(=O)CC[C@H](NC(=O)CCCCCCCCCCCCCCCCCCC(=O)O)C(=O)O)C(=O)N[C@@H](CC(N)=O)C(=O)N[C@@H]([C@@H](C)O)C(=O)N[C@@H](C)C(=O)N[C@@H]([C@@H](C)O)C(=O)N1)[C@@H](C)O)C(=O)N1CCC[C@H]1C(=O)N[C@@H](CO)C(=O)N[C@@H](CO)C(=O)N[C@H](C(=O)N[C@@H](CC(N)=O)C(=O)N[C@H](C(=O)NCC(=O)N1CCC[C@H]1C(=O)N[C@@H](CC(N)=O)C(=O)N[C@H](C(=O)N1CCC[C@H]1C(N)=O)[C@@H](C)O)C(C)C)[C@@H](C)O)
